# According to the RNAGym collection of RNA variant scans (doi:10.1093/molbev/msab373):
# B1: Azoarcus group I ribozyme (parent)
# chain: GUGCCUUGCGCCGGGAAACCACGCAAGGGAUGGUGUCAAAUUCGGCGAAACCUAAGCGCCCGCCCGGGCGUAUGGCAACGCCGAGCCAAGCUUCGGCGCCUGCGCCGAUGAAGGUGUAGAGACUAGACGGCACCCACCUAAGGCAAACGCUAUGGUGAAGGCAUAGUCCAGGGAGUGGCGAAAGUCACACAAACCGG
# Variants of: B1
# Assay: reverse-splicing fitness (ratio to wild type); higher = more active; in vitro selection; Mg2+ level not given
# Summary of the method: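 An in vitro group I ribozyme library with randomized positions was T7-transcribed and gel-purified. In triplicate, 10 pmol RNA in EPPS pH 7.5 was reacted with 50 pmoles of a 30-nt RNA substrate for 1 h at 37 °C across several added MgCl2 levels (1–48 mM), then stopped with EDTA. Products were reverse transcribed from a substrate-complementary primer, PCR-amplified and sequenced (HiSeq 4000). Fitness is a variant's read proportion after selection over that before, normalised to wild type.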
row,Variant,reverse-splicing fitness
1,GUGCCUUGCGCCGGGAAACCACGCAAGGGAUGGUGUCAAAUUCGGCGAAACCUAAGCGCCCGCCCGGGCGUAUGGCAACGCAGAGCCAAGCUUCGGCGCCUGCGCCGAUGAAGGUGUAGUGACUAGACGGCACCCACCUAAGGCGAACGGUAUGGUGAAGGCAUAGUCAAGGGAGUGGCGAAAGUCACACAAACCGG [C82A A120U A145G C150G C169A],0.0097
2,GUGCCUUGCGCCGGGAAACCACGCAAGGGAUGGUGUCAAAUUCGGCGAAACCUAAGCGCCCGCCCGGGCGUAUGGCAACGCAGAGCCAAGCUUCGGCGCCUGCGCCGAUGAAGGUGUAGUGACUAGACGGCACCCACCUAAGGCGAACGGUAUGGUGAAGGCAUAGUCGAGGGAGUGGCGAAAGUCACACAAACCGG [C82A A120U A145G C150G C169G],0.00686
3,GUGCCUUGCGCCGGGAAACCACGCAAGGGAUGGUGUCAAAUUCGGCGAAACCUAAGCGCCCGCCCGGGCGUAUGGCAACGCAGAGCCAAGCUUCGGCGCCUGCGCCGAUGAAGGUGUAGUGACUAGACGGCACCCACCUAAGGCGAACGGUAUGGUGAAGGCAUAGUCUAGGGAGUGGCGAAAGUCACACAAACCGG [C82A A120U A145G C150G C169U],0.00784
4,GUGCCUUGCGCCGGGAAACCACGCAAGGGAUGGUGUCAAAUUCGGCGAAACCUAAGCGCCCGCCCGGGCGUAUGGCAACGCAGAGCCAAGCUUCGGCGCCUGCGCCGAUGAAGGUGUAGUGACUAGACGGCACCCACCUAAGGCGAACGGUAUGGUGAAGGCAUAGUCGAGGGAGGGGCGAAAGUCACACAAACCGG [C82A A120U A145G C150G C169G U176G],0.00415
5,GUGCCUUGCGCCGGGAAACCACGCAAGGGAUGGUGUCAAAUUCGGCGAAACCUAAGCGCCCGCCCGGGCGUAUGGCAACGCAGAGCCAAGCUUCGGCGCCUGCGCCGAUGAAGGUGUAGUGACUAGACGGCACCCACCUAAGGCGAACGGUAUGGUGAAGGCAUAGUCGAGGGAGCGGCGAAAGUCACACAAACCGG [C82A A120U A145G C150G C169G U176C],0.00694
6,GUGCCUUGCGCCGGGAAACCACGCAAGGGAUGGUGUCAAAUUCGGCGAAACCUAAGCGCCCGCCCGGGCGUAUGGCAACGCAGAGCCAAGCUUCGGCGCCUGCGCCGAUGAAGGUGUAGUGACUAGACGGCACCCACCUAAGGCGAACGGUAUGGUGAAGGCAUAGUCGAGGGAGAGGCGAAAGUCACACAAACCGG [C82A A120U A145G C150G C169G U176A],0.00824
7,GUGCCUUGCGCCGGGAAACCACGCAAGGGAUGGUGUCAAAUUCGGCGAAACCUAAGCGCCCGCCCGGGCGUAUGGCAACGCAGAGCCAAGCUUCGGCGCCUGCGCCGAUGAAGGUGUAGUGACUAGACGGCACCCACCUAAGGCGAACGAUAUGGUGAAGGCAUAGUCCAGGGAGGGGCGAAAGUCACACAAACCGG [C82A A120U A145G C150A U176G],0.00391
8,GUGCCUUGCGCCGGGAAACCACGCAAGGGAUGGUGUCAAAUUCGGCGAAACCUAAGCGCCCGCCCGGGCGUAUGGCAACGCAGAGCCAAGCUUCGGCGCCUGCGCCGAUGAAGGUGUAGUGACUAGACGGCACCCACCUAAGGCGAACGAUAUGGUGAAGGCAUAGUCCAGGGAGAGGCGAAAGUCACACAAACCGG [C82A A120U A145G C150A U176A],0.0103
9,GUGCCUUGCGCCGGGAAACCACGCAAGGGAUGGUGUCAAAUUCGGCGAAACCUAAGCGCCCGCCCGGGCGUAUGGCAACGCAGAGCCAAGCUUCGGCGCCUGCGCCGAUGAAGGUGUAGUGACUAGACGGCACCCACCUAAGGCGAACGAUAUGGUGAAGGCAUAGUCCAGGGAGCGGCGAAAGUCACACAAACCGG [C82A A120U A145G C150A U176C],0.0142
10,GUGCCUUGCGCCGGGAAACCACGCAAGGGAUGGUGUCAAAUUCGGCGAAACCUAAGCGCCCGCCCGGGCGUAUGGCAACGCAGAGCCAAGCUUCGGCGCCUGCGCCGAUGAAGGUGUAGUGACUAGACGGCACCCACCUAAGGCGAACGAUAUGGUGAAGGCAUAGUCUAGGGAGCGGCGAAAGUCACACAAACCGG [C82A A120U A145G C150A C169U U176C],0.00385
11,GUGCCUUGCGCCGGGAAACCACGCAAGGGAUGGUGUCAAAUUCGGCGAAACCUAAGCGCCCGCCCGGGCGUAUGGCAACGCAGAGCCAAGCUUCGGCGCCUGCGCCGAUGAAGGUGUAGUGACUAGACGGCACCCACCUAAGGCGAACGAUAUGGUGAAGGCAUAGUCUAGGGAGAGGCGAAAGUCACACAAACCGG [C82A A120U A145G C150A C169U U176A],0.0044
12,GUGCCUUGCGCCGGGAAACCACGCAAGGGAUGGUGUCAAAUUCGGCGAAACCUAAGCGCCCGCCCGGGCGUAUGGCAACGCAGAGCCAAGCUUCGGCGCCUGCGCCGAUGAAGGUGUAGUGACUAGACGGCACCCACCUAAGGCGAACGAUAUGGUGAAGGCAUAGUCUAGGGAGGGGCGAAAGUCACACAAACCGG [C82A A120U A145G C150A C169U U176G],0.003
13,GUGCCUUGCGCCGGGAAACCACGCAAGGGAUGGUGUCAAAUUCGGCGAAACCUAAGCGCCCGCCCGGGCGUAUGGCAACGCAGAGCCAAGCUUCGGCGCCUGCGCCGAUGAAGGUGUAGUGACUAGACGGCACCCACCUAAGGCGAACGGUAUGGUGAAGGCAUAGUCUAGGGAGCGGCGAAAGUCACACAAACCGG [C82A A120U A145G C150G C169U U176C],0.00657
14,GUGCCUUGCGCCGGGAAACCACGCAAGGGAUGGUGUCAAAUUCGGCGAAACCUAAGCGCCCGCCCGGGCGUAUGGCAACGCAGAGCCAAGCUUCGGCGCCUGCGCCGAUGAAGGUGUAGUGACUAGACGGCACCCACCUAAGGCGAACGGUAUGGUGAAGGCAUAGUCUAGGGAGGGGCGAAAGUCACACAAACCGG [C82A A120U A145G C150G C169U U176G],0.00419
15,GUGCCUUGCGCCGGGAAACCACGCAAGGGAUGGUGUCAAAUUCGGCGAAACCUAAGCGCCCGCCCGGGCGUAUGGCAACGCAGAGCCAAGCUUCGGCGCCUGCGCCGAUGAAGGUGUAGUGACUAGACGGCACCCACCUAAGGCGAACGGUAUGGUGAAGGCAUAGUCUAGGGAGAGGCGAAAGUCACACAAACCGG [C82A A120U A145G C150G C169U U176A],0.00865
